Values joined by “and” are separate entries in the source; they are usually repeats but may differ in a detail not shown here. Equal values may be shown once.
Columns and labels:
Experiment in all cases: fluorescence anisotropy
[1] = biological target: Gal4LOV(SK22) I532E/A536E (/ Avena sativa (chimera)) (UniProt P04386); conditions: dark; 20 mM HEPES pH 7.5, 50 mM NaCl, 50 ug/mL BSA, 5% Ficoll 400; 2 nM DNA; temperature not stated
[2] = biological target: Gal4LOV(SK22) V416L (/ Avena sativa (chimera)) (UniProt P04386); conditions: 20 mM HEPES pH 7.5, 50 mM NaCl, 50 ug/mL BSA, 5% Ficoll 400; 2 nM DNA; temperature not stated
[3] = biological target: Gal4LOV(SK22) C450V (/ Avena sativa (chimera)) (UniProt P04386); conditions: dark; 20 mM HEPES pH 7.5, 50 mM NaCl, 50 ug/mL BSA, 5% Ficoll 400; 2 nM DNA; temperature not stated
[4] = biological target: Gal4LOV(SK22) (Gal4 DBD with AsLOV2 inserted between Ser22 and Lys23, no VP64) (/ Avena sativa (chimera)) (UniProt P04386); conditions: 20 mM HEPES pH 7.5, 50 mM NaCl, 50 ug/mL BSA, 5% Ficoll 400, 2 nM DNA, temperature not stated

With “TCTTCGGAGGGCTGTCACCCGAATATA (double strand) [1xUAS 27-bp DNA]” the Kd [1] was 13.4 nM, the Kd [2] was 8.6 nM and 16.6 nM and the Kd [3] was 8.8 nM. The Kd [4] was 4.2 nM and the Kd ([4]; dark) was 6.4 nM.
